{"source": "patent US20210340548A1"}
{"target": "Cry2 PHR (L348F)-p65AD-NLSx2 fusion construct as released from the TetR (I194T, 1-206)-CIB1 (-NLS)-T2A-Cry2 PHR (L348F)-p65AD-NLSx2 fusion construct", "sequence (Q96524 other isoform, or with tags, fused parts or gaps L348F I194T L348F L348F I194T L348F)": "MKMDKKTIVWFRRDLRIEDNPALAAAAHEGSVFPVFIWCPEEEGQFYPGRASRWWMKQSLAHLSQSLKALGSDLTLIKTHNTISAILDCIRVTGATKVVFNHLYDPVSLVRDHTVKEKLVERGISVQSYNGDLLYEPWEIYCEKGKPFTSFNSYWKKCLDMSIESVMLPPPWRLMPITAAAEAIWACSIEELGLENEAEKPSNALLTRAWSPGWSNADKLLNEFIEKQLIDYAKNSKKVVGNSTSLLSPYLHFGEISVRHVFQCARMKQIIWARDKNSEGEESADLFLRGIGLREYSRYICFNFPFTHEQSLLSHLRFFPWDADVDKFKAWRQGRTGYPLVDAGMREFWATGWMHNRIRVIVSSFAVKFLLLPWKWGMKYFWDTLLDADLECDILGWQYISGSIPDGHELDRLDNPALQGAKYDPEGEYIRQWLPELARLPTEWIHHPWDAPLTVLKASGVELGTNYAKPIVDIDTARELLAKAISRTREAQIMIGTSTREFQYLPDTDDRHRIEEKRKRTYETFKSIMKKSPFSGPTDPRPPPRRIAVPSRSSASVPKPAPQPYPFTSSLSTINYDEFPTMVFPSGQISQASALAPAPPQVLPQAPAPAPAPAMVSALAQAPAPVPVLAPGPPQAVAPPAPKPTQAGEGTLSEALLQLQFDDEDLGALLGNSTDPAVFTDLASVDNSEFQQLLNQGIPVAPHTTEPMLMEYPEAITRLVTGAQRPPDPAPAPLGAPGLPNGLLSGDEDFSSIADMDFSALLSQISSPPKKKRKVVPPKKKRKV", "test": "cell-based or functional assay", "units": {"Ub-ELuc luciferase, Dark, Dox 0 ng/mL": "relative", "Ub-ELuc luciferase, Dark, Dox 75 ng/mL": "relative", "Ub-ELuc luciferase, Light, Dox 0 ng/mL": "relative", "Ub-ELuc luciferase, Light, Dox 75 ng/mL": "relative", "Ub-ELuc luciferase, Dark, Dox 0 ng/mL, 36 h light": "relative", "Ub-ELuc luciferase, Dark, Dox 500 ng/mL, 36 h light": "relative", "Ub-ELuc luciferase, Light, Dox 0 ng/mL, 36 h light": "relative", "Ub-ELuc luciferase, Light, Dox 500 ng/mL, 36 h light": "relative"}}
{"binder": "TetR (I194T, H100Y, 1-206)-CIB1 (-NLS) from the T2A construct (protein, part only, T2A residues at C-terminus) MARLDKSKVINSALELLNEVGIEGLTTRKLAQKLGVEQPTLYWHVKNKRALLDALAIEMLDRHHTHFCPLEGESWQDFLRNNAKSFRCALLSHRDGAKVYLGTRPTEKQYETLENQLAFLCQQGFSLENALYALSAVGHFTLGCVLEDQEHQVAKEERETPTTDSMPPLLRQAIELFDHQGAEPAFLFGLELITCGLEKQLKCESGSPKKKHMEFNGAIGGDLLLNFPDMSVLERQRAHLKYLNPTFDSPLAGFFADSSMITGGEMDSYLSTAGLNLPMMYGETTVEGDSRLSISPETTLGTGNFKAAKFDTETKDCNEAAKKMTMNRDDLVEEGEEEKSKITEQNNGSTKSIKKMKHKAKKEENNFSNDSSKVTKELEKTDYI", "Average of the Light/Dark ratio, Dox 0 ng/mL": 19, "Average of the Light/Dark ratio, Dox 75 ng/mL": 19.4, "Light/Dark, Dox 0 ng/mL": 30.6, "Light/Dark, Dox 75 ng/mL": 22.7, "Ub-ELuc luciferase, Dark, Dox 0 ng/mL": 2.6, "Ub-ELuc luciferase, Dark, Dox 75 ng/mL": 3.1, "Ub-ELuc luciferase, Light, Dox 0 ng/mL": 58.1, "Ub-ELuc luciferase, Light, Dox 75 ng/mL": 41.4}
{"binder": "rTetR (I194T, V16 mutation, 1-206)-CIB1 (-NLS) from the T2A construct (protein, part only; not given: Leftover T2A residues, part only) chain, part: MARLDKSKIINSALELLNGVGIEGLTTRKLAQKLGVEQPTLYWHVKNKRALLDALPIEMLDRHHTHSCPLEGESWQDFLRNNAKSYRCALLSHRDGAKVHLGTRPTEKQYETLENQLAFLCQQGFSLENALYALSAVGHFTLGCVLEEQEHQVAKEERETPTTDSMPPLLKQAIELFDRQGAEPAFLFGLELITCGLEKQLKCESGSPKKKHMEFNGAIGGDLLLNFPDMSVLERQRAHLKYLNPTFDSPLAGFFADSSMITGGEMDSYLSTAGLNLPMMYGETTVEGDSRLSISPETTLGTGNFKAAKFDTETKDCNEAAKKMTMNRDDLVEEGEEEKSKITEQNNGSTKSIKKMKHKAKKEENNFSNDSSKVTKELEKTDYI", "Average of the Light/Dark ratio, Dox 0 ng/mL": 1.5, "Average of the Light/Dark ratio, Dox 75 ng/mL": 15.8, "Light/Dark, Dox 0 ng/mL": 1.6, "Light/Dark, Dox 75 ng/mL": 26.4, "Ub-ELuc luciferase, Dark, Dox 0 ng/mL": 0.2, "Ub-ELuc luciferase, Dark, Dox 75 ng/mL": 5.9, "Ub-ELuc luciferase, Light, Dox 0 ng/mL": 0.3, "Ub-ELuc luciferase, Light, Dox 75 ng/mL": 76.7}
{"binder": "rTetR (I194T, V10 mutation, 1-206)-CIB1 (-NLS) from the T2A construct (protein, part only; not given: Leftover T2A residues, part only) chain, part: MARLDKSKVINSALELLNGVGIEGLTTRKLAQKLGVEQPTLYWHVKNKRALLDALPIEMLDRHHTHSCPLEGESWQDFLRNNAKSYRCALLSHRDGAKVHLGTRPTEKQYETLENQLAFLCQQGFSLENALYALSAVGHFTLGCVLEEQEHQVAKEERETPTTDSMPPLLKQAIELFDRQGAEPAFLFGLELITCGLEKQLKCESGSPKKKHMEFNGAIGGDLLLNFPDMSVLERQRAHLKYLNPTFDSPLAGFFADSSMITGGEMDSYLSTAGLNLPMMYGETTVEGDSRLSISPETTLGTGNFKAAKFDTETKDCNEAAKKMTMNRDDLVEEGEEEKSKITEQNNGSTKSIKKMKHKAKKEENNFSNDSSKVTKELEKTDYI", "Average of the Light/Dark ratio, Dox 0 ng/mL": 1.3, "Average of the Light/Dark ratio, Dox 0 ng/mL, 36 h light": 9.6, "Average of the Light/Dark ratio, Dox 75 ng/mL": 32.8, "Average of the Light/Dark ratio, Dox 500 ng/mL, 36 h light": 959, "Light/Dark, Dox 0 ng/mL": 1.1, "Light/Dark, Dox 0 ng/mL, 36 h light": 9.2, "Light/Dark, Dox 75 ng/mL": 42.7, "Light/Dark, Dox 500 ng/mL, 36 h light": 412, "Ub-ELuc luciferase, Dark, Dox 0 ng/mL": 0.2, "Ub-ELuc luciferase, Dark, Dox 0 ng/mL, 36 h light": 3.6, "Ub-ELuc luciferase, Dark, Dox 75 ng/mL": 1.2, "Ub-ELuc luciferase, Dark, Dox 500 ng/mL, 36 h light": 22.8, "Ub-ELuc luciferase, Light, Dox 0 ng/mL": 0.2, "Ub-ELuc luciferase, Light, Dox 0 ng/mL, 36 h light": 25.3, "Ub-ELuc luciferase, Light, Dox 75 ng/mL": 51.7, "Ub-ELuc luciferase, Light, Dox 500 ng/mL, 36 h light": 9140}
{"binder": "rTetR (I194T, rtTA mutation, 1-206)-CIB1 (-NLS) from the T2A construct (protein, part only; not given: Leftover T2A residues, part only) chain, part: MARLDKSKVINSALELLNEVGIEGLTTRKLAQKLGVEQPTLYWHVKNKRALLDALAIEMLDRHHTHFCPLKGESWQDFLRNNAKSFRCALLSHRNGAKVHSDTRPTEKQYETLENQLAFLCQQGFSLENALYALSAVGHFTLGCVLEDQEHQVAKEERETPTTDSMPPLLRQAIELFDHQGAEPAFLFGLELITCGLEKQLKCESGSPKKKHMEFNGAIGGDLLLNFPDMSVLERQRAHLKYLNPTFDSPLAGFFADSSMITGGEMDSYLSTAGLNLPMMYGETTVEGDSRLSISPETTLGTGNFKAAKFDTETKDCNEAAKKMTMNRDDLVEEGEEEKSKITEQNNGSTKSIKKMKHKAKKEENNFSNDSSKVTKELEKTDYI", "Average of the Light/Dark ratio, Dox 0 ng/mL": 3.2, "Average of the Light/Dark ratio, Dox 75 ng/mL": 22.5, "Light/Dark, Dox 0 ng/mL": 3.5, "Light/Dark, Dox 75 ng/mL": 3.4, "Ub-ELuc luciferase, Dark, Dox 0 ng/mL": 0.2, "Ub-ELuc luciferase, Dark, Dox 75 ng/mL": 0.1, "Ub-ELuc luciferase, Light, Dox 0 ng/mL": 0.5, "Ub-ELuc luciferase, Light, Dox 75 ng/mL": 0.4}
